Ends that are not written are not given here.
Columns and labels:
Test in all cases: cyclic peptide substitution array
[1] = biological target: T1, ApoC3 peptide F64C (human, cyclic (thioether))
T1 peptide: DKFSECWDLDPEV
How it was run: (§1)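 Peptide microarrays incubated with antibody samples, then stained with goat anti-human IgG (Fc) DyLight680 and anti-HA DyLight800 control antibodies, scanned at intensity 7/7 (red/green). Secondary-only pre-stain checked background binding; framing HA peptides served as quality control; substitution effects read as changes in spot intensity.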

[2] = biological target: T2, ApoC3 peptide F61E (human, cyclic (thioether))
T2 peptide: DKESEFWDLDPEV
How it was run: as §1

[3] = biological target: T3, ApoC3 peptide D66E (human, not fully specified; cyclic (thioether))
T3 peptide: DKFSEFWELDPEV
How it was run: as §1

[4] = biological target: T4, ApoC3 peptide V71E (human, thioether (positions not given here); also: cyclic (thioether), ring places not given here)
T4 peptide: DKFSEFWDLDPEE
How it was run: as §1

[5] = biological target: T5, ApoC3 peptide E70F (human, cyclic (thioether))
T5 peptide: DKFSEFWDLDPFV
How it was run: as §1

[6] = biological target: T6, ApoC3 peptide E63I (human, cyclic (thioether))
T6 peptide: DKFSIFWDLDPEV
How it was run: as §1

[7] = biological target: T7, ApoC3 peptide V71I (human, thioether (positions not given here); also: cyclic (thioether), ring places not given here)
T7 peptide: DKFSEFWDLDPEI
How it was run: as §1

[8] = biological target: T8, ApoC3 peptide F64K (human, thioether (positions not given here); not fully specified (bridges); also: cyclic (thioether), positions not given here)
T8 peptide: DKFSEKWDLDPEV
How it was run: as §1

[9] = biological target: T9, ApoC3 peptide E63L (human, cyclic (thioether))
T9 peptide: DKFSLFWDLDPEV
How it was run: as §1

[10] = biological target: T10, ApoC3 peptide D59M (human, thioether (positions not given here); not fully specified (C-terminus, bridges))
T10 peptide: MKFSEFWDLDPEV
How it was run: as §1

[11] = biological target: T11, ApoC3 peptide E63M (human, cyclic (thioether))
T11 peptide: DKFSMFWDLDPEV
How it was run: as §1

[12] = biological target: T12, ApoC3 peptide E70M (human, cyclic (thioether))
T12 peptide: DKFSEFWDLDPMV
How it was run: as §1

[13] = biological target: T13, ApoC3 peptide S62P (human, thioether (positions not given here); also: cyclic (thioether), ring places not given here)
T13 peptide: DKFPEFWDLDPEV
How it was run: as §1

[14] = biological target: T14, ApoC3 peptide D68P (human, cyclic (thioether))
T14 peptide: DKFSEFWDLPPEV
How it was run: as §1

[15] = biological target: T15, ApoC3 peptide D59Q (human, thioether (positions not given here); not fully specified (C-terminus, bridges); also: cyclised via thioether between a C-terminal Cys and a modified N-terminus, the Cys and the N-terminal …)
T15 peptide: QKFSEFWDLDPEV
How it was run: as §1

[16] = biological target: T16, ApoC3 peptide L67Q (human, thioether (positions not given here); not fully specified (bridges); also: thioether between a C-terminal Cys side chain and a modified N-terminus, the Cys is not in the chain)
T16 peptide: DKFSEFWDQDPEV
How it was run: as §1

[17] = biological target: T17, ApoC3 peptide E70R (human, cyclic (thioether))
T17 peptide: DKFSEFWDLDPRV
How it was run: as §1

[18] = biological target: T18, ApoC3 peptide K60S (human, cyclic (thioether))
T18 peptide: DSFSEFWDLDPEV
How it was run: as §1

[19] = biological target: T19, ApoC3 peptide W65S (human, cyclic (thioether))
T19 peptide: DKFSEFSDLDPEV
How it was run: as §1

[20] = biological target: T20, ApoC3 peptide S62T (human, thioether (positions not given here); also: cyclic (thioether), ring places not given here)
T20 peptide: DKFTEFWDLDPEV
How it was run: as §1

[21] = biological target: T21, ApoC3 peptide F64T (human, thioether (positions not given here); not fully specified (bridges); also: cyclic (thioether), positions not given here)
T21 peptide: DKFSETWDLDPEV
How it was run: as §1

[22] = biological target: T22, ApoC3 peptide D68T (human, cyclic (thioether))
T22 peptide: DKFSEFWDLTPEV
How it was run: as §1

[23] = biological target: T23, ApoC3 peptide E70T (human, cyclic (thioether))
T23 peptide: DKFSEFWDLDPTV
How it was run: as §1

[24] = biological target: T24, ApoC3 peptide V71T (human, not fully specified; cyclic (thioether))
T24 peptide: DKFSEFWDLDPET
How it was run: as §1

[25] = biological target: T25, ApoC3 peptide D66V (human, not fully specified; cyclic (thioether))
T25 peptide: DKFSEFWVLDPEV
How it was run: as §1

[26] = biological target: T26, ApoC3 peptide F64W (human, thioether (positions not given here); not fully specified (bridges); also: cyclic (thioether), positions not given here)
T26 peptide: DKFSEWWDLDPEV
How it was run: as §1

[27] = biological target: T27, ApoC3 peptide L67W (human, thioether (positions not given here); not fully specified (bridges); also: thioether between a C-terminal Cys side chain and a modified N-terminus, the Cys is not in the chain)
T27 peptide: DKFSEFWDWDPEV
How it was run: as §1

[28] = biological target: T28, ApoC3 peptide E63A (human, not fully specified; cyclic (thioether))
T28 peptide: DKFSAFWDLDPEV
How it was run: as §1

[29] = biological target: T29, ApoC3 peptide F64A (human, cyclic (thioether))
T29 peptide: DKFSEAWDLDPEV
How it was run: as §1

[30] = biological target: T30, ApoC3 peptide F61C (human, cyclic (thioether))
T30 peptide: DKCSEFWDLDPEV
How it was run: as §1

% of binding to wild-type peptide [1]: 51%
% of binding to wild-type peptide [2]: 180%
% of binding to wild-type peptide [3]: 2.16%
% of binding to wild-type peptide [4]: 127%
% of binding to wild-type peptide [5]: 40.1%
% of binding to wild-type peptide [6]: 0%
% of binding to wild-type peptide [7]: 66%
% of binding to wild-type peptide [8]: 114%
% of binding to wild-type peptide [9]: 10.1%
% of binding to wild-type peptide [10]: 57.7%
% of binding to wild-type peptide [11]: 13.1%
% of binding to wild-type peptide [12]: 74%
% of binding to wild-type peptide [13]: 0%
% of binding to wild-type peptide [14]: 28.6%
% of binding to wild-type peptide [15]: 68.3%
% of binding to wild-type peptide [16]: 3.99%
% of binding to wild-type peptide [17]: 35.8%
% of binding to wild-type peptide [18]: 174%
% of binding to wild-type peptide [19]: 0%
% of binding to wild-type peptide [20]: 215%
% of binding to wild-type peptide [21]: 467%
% of binding to wild-type peptide [22]: 0.65%
% of binding to wild-type peptide [23]: 83%
% of binding to wild-type peptide [24]: 96.7%
% of binding to wild-type peptide [25]: 0%
% of binding to wild-type peptide [26]: 88.5%
% of binding to wild-type peptide [27]: 1.45%
% of binding to wild-type peptide [28]: 90.1%
% of binding to wild-type peptide [29]: 220%
% of binding to wild-type peptide [30]: 0.51%
B1: Llama antibody 5E5 (antibody, V domains shown)
VH: QLQLVESGGGLVQPGGSLRLSCAASGFTFGTYSMRWVRQVPRKALEWVSSISTDGGGTAYRDSVKGRFTISRDNAKNTLYLQMNNLKPEDTAIYYCVIAGYSDWGQGTQVTVSS
VL: ATMLTQSPGSLSVVPGESASISCKTSQGLVHSDGKTYFYWFLQKPGQSPQQLIYQVSNRASGVPDRFTGSGSGTDFTLKISGVKAEDAGVYYCAQGTYYPHTFGSGTRLEIK
notes: detected with goat anti-human IgG (Fc); also called mAb 5E5

Source: patent US20190241648A1 (STATEN BIOTECHNOLOGY B V, published 2019)
